Laboratory results as given in US20220259289A1 (Janssen / Centocor, published 2022).

Key:
[1] = target: unrelated Fc-fused recombinant protein (negative control); assay: ELISA, bacterial lysate on plate-bound antigen, luminescence
[2] = target: unrelated Fc-fused recombinant protein; assay: ELISA, negative control Fc protein
human serum albumin = target: T1, human serum albumin (human, UniProt P02768 25-609); assay: ELISA, negative control HSA
T1 construct: Negative control of the ELISA; also called HSA
Description: (§1) Streptavidin-coated Maxisorp plates (Nunc catalog 436110) were blocked for 1 h in Starting Block T20 (Pierce) and then coated with biotinylated CD137 (using same antigen as in panning) or negative controls (an unrelated Fc-fused recombinant protein and human serum albumin) for 1 h. Plates were rinsed with TBST and diluted lysate was applied to plates for 1 h. Following additional rinses, wells were treated with HRP-conjugated anti-Centyrin antibody (PAB25) for 1 h and then assayed with POD (Roche catalog 11582950001).

[3] = target: T2, recombinant biotinylated CD137 protein (Fc-fusion protein, R&D Systems 838-4B) (human, UniProt Q07011 24-186, biotinylated, sites not stated); assay: ELISA, lysate on biotinylated CD137-Fc
T2 construct: Bought Fc fusion; also called CD137-Fc
Description: as §1

T1 sequence (P02768 25-609 limits assumed): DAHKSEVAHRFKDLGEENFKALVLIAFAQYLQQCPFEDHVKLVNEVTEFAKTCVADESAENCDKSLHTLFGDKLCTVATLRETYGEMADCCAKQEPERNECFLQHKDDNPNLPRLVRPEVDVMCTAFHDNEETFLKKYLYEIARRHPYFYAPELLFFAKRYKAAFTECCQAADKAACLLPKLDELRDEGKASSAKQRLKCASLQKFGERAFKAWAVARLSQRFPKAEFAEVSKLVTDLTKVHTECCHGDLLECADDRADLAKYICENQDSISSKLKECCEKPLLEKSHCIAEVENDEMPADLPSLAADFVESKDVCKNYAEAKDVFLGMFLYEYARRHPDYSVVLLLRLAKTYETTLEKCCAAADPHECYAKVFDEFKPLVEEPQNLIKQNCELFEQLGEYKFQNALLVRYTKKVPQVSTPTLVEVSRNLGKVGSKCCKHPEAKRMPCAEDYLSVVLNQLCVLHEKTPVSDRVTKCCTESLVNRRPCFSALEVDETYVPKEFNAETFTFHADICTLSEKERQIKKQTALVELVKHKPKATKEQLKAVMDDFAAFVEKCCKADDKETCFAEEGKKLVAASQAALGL

| Binder | ELISA Fc Control (RLU) [1] [RLU] | ELISA Fc Control (RLU) [2] [RLU] | ELISA HSA (RLU) (human serum albumin) | ELISA CD137 (RLU) [3] [RLU] |
| --- | --- | --- | --- | --- |
| ISOP120FR5P1D7 (designed binder, not shown: small tags and cut ends) LPAPKNLVVSRVTEDSARLSWTAPDAAFDSFIIRYLEDISYGEAIVLTVPGSERSYDLTGLKPGTEYHVGIEGVKGGNVSWPLSAIFTT | 400 | – | – | – |
| ISOP120FR5P1F8 (designed binder, not shown: small tags and cut ends) LPAPKNLVVSRVTEDSARLSWTAPDAAFDSFIIRYLEDISYGEAIVLTVPGSERSYDLTGLKPGTEYHVGIEGVKGGNVSWPLSAIFTT | 240 | – | – | – |
| ISOP193ER9P1A10 (designed binder, not shown: small tags and cut ends) LPAPKNLVVSRVTEDSARLSWTAPDAAFDSFDIYYFEHPVGGEAIVLTVPGSERSYDLTGLKPGTEYLVTIYGVKGGHFSGPLSAIFTT | – | 1120 | 240 | 1.49e+07 |
| ISOP193ER9P1G5 (designed binder, not shown: small tags and cut ends) LPAPKNLVVSRVTEDSARLSWTAPDAAFDSFDIYYFEHPVGGEAIVLTVPGSERSYDLTGLKPGTEYLVTIYGVKGGYLSMPLSAIFTT | – | 1440 | – | – |
| ISOP193ER9P1G4 (designed binder, not shown: small tags and cut ends) LPAPKNLVVSRVTEDSARLSWTAPDAAFDSFDIYYFEHPVGGEAIVLTVPGSERSYDLTGLKPGTEYLVTIYGVKGGNFSFPLSAIFTT | – | 1440 | 320 | 1.38e+07 |
| ISOP193ER9P1D7 (designed binder, not shown: small tags and cut ends) LPAPKNLVVSRVTEDSARLSWTAPDAAFDSFDIYYGEHWKLGEAIVLTVPGSERSYDLTGLKPGTEYLVTIYGVKGGMSSNPLSAIFTT | – | 1680 | 400 | 1.1e+07 |
| ISOP193ER9P1F9 (designed binder, not shown: small tags and cut ends) LPAPKNLVVSRVTEDSARLSWTAPDAAFDSFHIYYGEHYNLGEAIVLTVPGSERSYDLTGLKPGTEYLVTIYGVKGGFWSTPLSAIFTT | – | 1840 | 400 | 1.5e+07 |
| ISOP193FR9P1G2 (designed binder, not shown: small tags and cut ends) LPAPKNLVVSRVTEDSARLSWTAPDAAFDSFTIYYFENENGGEAIVLTVPGSERSYDLTGLKPDTEYLVTIYGVKGGHWSRPLSAIFTT | – | 2560 | 880 | 7.86e+06 |
| ISOP193FR9P1A11 (designed binder, not shown: small tags and cut ends) LPAPKNLVVSRVTEDSARLSWTAPDAAFDSFAIQYWEGWEWGEAIVLTVPGSERSYDLTGLKPGTEYLVTIYGVKGGHWSRPLSAIFTT | – | 3520 | 880 | 5.78e+06 |
| ISOP193FR9P1G10 (designed binder, not shown: small tags and cut ends) LPAPKNLVVSRVTEDSARLSWTAPDAAFDSFTIYYFENENGGEAIVLTVPGSERSYDLTGLKPGTEYLVTIYGVKGGHWSRPLSAIFTT | – | 2480 | 880 | 8.91e+06 |
| ISOP193ER9P1B4 (designed binder, not shown: small tags and cut ends) LPAPKNLVVSHVTEDSARLSWTAPDAAFDSFDIYYFEHPVGGEAIVLTVPGSERSYDLTGLKPGTEYLVTIYGVKGGYLSMPLSAIFTT | – | 1600 | 320 | 1.61e+07 |
| ISOP193BR9P1G11 (designed binder, not shown: small tags and cut ends) LPAPKNLVVSRVTEDSARLSWAGHYRKIRNFDSFLIQYQESEKVGEAIVLTVPGSERSYDLTGLKPGTEYTVSIYGVKFPYYYATADSNPLSAIFTT | – | 56900 | 9600 | 4.99e+06 |
| ISOP193BR9P1G2 (designed binder, not shown: small tags and cut ends) LPAPKNLVVSRVTEDSARLSWAGHYRKIRNFDSFLIQYQESEKVGEAIVLTVPGSERSYDLTGLKPGTEYTVSIYGVAEHWYYATQDSNPLSAIFTT | – | 15900 | 2160 | 6.15e+06 |
| ISOP193BR9P1G6 (designed binder, not shown: small tags and cut ends) LPAPKNLVVSRVTEDSARLSWDDQFEDWFDSFLIQYQESEQVGEAIVLTVPGSERSYDLTGLKPGTEYTVSIYGVHTRDWTAWNASNPLSAIFTT | – | 2640 | 960 | 8.09e+06 |
| ISOP193BR9P1E6 (designed binder, not shown: small tags and cut ends) LPAPKNLVVSRVTEDSARLSWGAITALFDSFLIQYQESEKVGEAIVLTVPGSERSYDLTGLKPGTEYTVSIYGVKFPYYYATADSNPLSAIFTT | – | 2560 | 560 | 4.63e+06 |
| ISOP193AR9P1A11 (designed binder, not shown: small tags and cut ends) LPAPKNLVVSRVTEDSARLSWALSSVHAYFDSFLIQYQESEKVGEAIVLTVPGSERSYDLTGLKPGTEYTVSIYGVQYVDGFFKSNPLSAIFTT | – | 1440 | 320 | 8.66e+06 |
| ISOP193BR9P1G9 (designed binder, not shown: small tags and cut ends) LPAPKNLVVSRVTEDSARLSWKQVTVAPEFDSFLIQYQESEKVGEAIVLTVPGSERSYDLTGLKPGTEYTVSIYGVKFPYYYATADSNPLSAIFTT | – | 1200 | 720 | 3.73e+06 |
| ISOP193AR9P1G8 (designed binder, not shown: small tags and cut ends) LPAPKNLVVSRVTEDSARLSWHATFGDPFDSFLIQYQESEKVGEAIVLTVPGSERSYDLTGLKPGTEYTVSIYGVGRHYTVYDSNPLSAIFTT | – | 1440 | 720 | 4.26e+06 |
| ISOP193AR9P1A6 (designed binder, not shown: small tags and cut ends) LPAPKNLVVSRVTEDSARLSWKFGEVAFDSFLIQYQESEKVGEAIVLTVPGSERSYDLTGLKPGTEYTVSIYGVGRHYTVYDSNPLSAIFTT | – | 960 | 480 | 6.74e+06 |
| ISOP193AR9P1E6 (designed binder, not shown: small tags and cut ends) LPAPKNLVVSRVTEDSARLSWKFHSPTFDSFLIQYQESEKVGEAIVLTVPGSERSYDLTGLKPGTEYTVSIYGVGRHYTVYDSNPLSAIVTT | – | 1200 | 720 | 4.18e+06 |
| ISOP193AR9P1C10 (designed binder, not shown: small tags and cut ends) LPAPKNLVVSRVTEDSARLSWPNHISIFDSFLIQYQESEKVGEAIVLTVPGSERSYDLTGLKPGTEYTVSIYGVGRFYTVFDSNPLSAIFTT | – | 3520 | 960 | 7.14e+06 |
| ISOP193AR9P1F4 (designed binder, not shown: small tags and cut ends) LPAPKNLVVSRVTEDSARLSWLEQEQFVNHFDSFLIQYQESEKVGEAIVLTVPGSERSYDLTGLKPGTEYTVSIYGVQYVDGFFKSNPLSAIFTT | – | 1520 | 720 | 3.84e+06 |
| ISOP193AR9P1G5 (designed binder, not shown: small tags and cut ends) LPAPKNLVVSRVTEDSARLSWRISDRLPLFDSFLIQYQESEKVGEAIVLTVPGSERSYDLTGLKPGTEYTVSIYGVGRHYTVYDSNPLSAIFTT | – | 1120 | 720 | 4.02e+06 |
| ISOP193BR9P1H3 (designed binder, not shown: small tags and cut ends) LPAPKNLVVSRVTEDSARLSWNRLDSEWVAFDSFLIQYQESEKVGEAIVLTVPGSERSYDLTGLKPGTEYTVSIYGVVFRPWLAYNSNPLSAIFTT | – | 2080 | 1360 | 5.26e+06 |
| ISOP193AR9P1B12 (designed binder, not shown: small tags and cut ends) LPAPKNLVVSRVTEDSARLSWTNEQITKYGFDSFLIQYQESEKVGEAIVLTVPGSERSYDLTGLKPGTEYTVSIYGVGAPYTVYDSNPLSAIFTT | – | 2240 | 1440 | 2.76e+06 |
| ISOP193AR9P1H8 (designed binder, not shown: small tags and cut ends) LPAPKNLVVSRVTEDSARLSWTNEQITKYGFDSFLIQYQESEKVGEAIVLTVPGSERSYDLTGLKPGTEYTVSIYGVGRFYTVFDSNPLSAIFTT | – | 3040 | 1040 | 3.72e+06 |
| ISOP193BR9P1B12 (designed binder, not shown: small tags and cut ends) LPAPKNLVVSRVTEDSARLSWPDESRPVRFDSFLIQYQESEKVGEAIVLTVPGSERSYDLTGLKPGTEYTVSIYGVLRPWIYATNDSNPLSAIFTT | – | 14000 | 2880 | 6.55e+06 |
| ISOP193BR9P1H6 (designed binder, not shown: small tags and cut ends) LPAPKNLVVSRVTEDSARLSWPDESRPVRFDSFLIQYQESEKVGEAIVLTVPGSERSYDLTGLKPGTEYTVSIYGVVGQWKYATADSNPLSAIFTT | – | 8320 | 2880 | 8.86e+06 |
| ISOP193BR9P1H2 (designed binder, not shown: small tags and cut ends) LPAPKNLVVSRVTEDSARLSWPDESRPVRFDSFLIQYQESEKVGEAIVLTVPGSERSYDLTGLKPGTEYTVSIYGVHTRDWTAWNASNPLSAIFTT | – | 11800 | 3280 | 3.5e+06 |
| ISOP193BR9P1G3 (designed binder, not shown: small tags and cut ends) LPAPKNLVVSRVTEDSARLSWAQSNQQFDSFLIQYQESEKVGEAIVLTVPGSERSYDLTGLKPGTEYTVSIYGVVWQNWVAYNSNPLSAIFTT | – | 1360 | 640 | 4.71e+06 |
